The subject of this series is Escherichia coli TOP10. Briefly: shrunken log2 fold change of peptide-encoding DNA abundance (4.5 h post-induction vs induction); higher = less antimicrobial activity (less host growth inhibition). The conditions noted are these: time post-induction: 4.5 h; library: site-saturation at positions 5, 18, 19, 20.
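Further: peptides expressed intracellularly from a pBAD plasmid library in pooled LB shake-flask culture, induced with 0.3% L-arabinose, DNA abundance read by NGS, three biological replicates, DESeq2 with apeglm shrinkage.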

As for RRIRTRPPRLPRPRPRPLLRPRP, the “shrunken log2 fold change” value stood at 0.0975.
Take RRIRWRPPRLPRPRPRPMVSPRP: the “shrunken log2 fold change” value is -0.0339.
The result for RRIRGRPPRLPRPRPRPTDKPRP reads 0.705; that for RRIRPRPPRLPRPRPRPWMWPRP, 0.0296.
Next, RRIRGRPPRLPRPRPRPMWQPRP: 0.418.
The result for RRIRGRPPRLPRPRPRPFQSPRP reads -0.00674; that for RRIRYRPPRLPRPRPRPKSHPRP, 0.49; that for RRIRPRPPRLPRPRPRPCRLPRP, -0.29.
Consider RRIRQRPPRLPRPRPRPRPDPRP, for which the “shrunken log2 fold change” value was found to be 0.191.
The result for RRIRPRPPRLPRPRPRPTAYPRP reads -0.203; that for RRIRDRPPRLPRPRPRPRDYPRP, 0.0389; that for RRIRKRPPRLPRPRPRPQCNPRP, -0.0696.
Turning to RRIRNRPPRLPRPRPRPVTDPRP, the “shrunken log2 fold change” value was -0.013.
The result for RRIRDRPPRLPRPRPRPFGCPRP reads -0.109.
The result for RRIRWRPPRLPRPRPRPNAWPRP reads 0.826; that for RRIRSRPPRLPRPRPRPWSKPRP, -0.405.
Next, RRIRDRPPRLPRPRPRPAIAPRP: 0.878; RRIRFRPPRLPRPRPRPSTAPRP: -0.0915; RRIRVRPPRLPRPRPRPYAFPRP: -0.0621.
With RRIRIRPPRLPRPRPRPHQGPRP, the “shrunken log2 fold change” value was -0.117.
Next, RRIRPRPPRLPRPRPRPDEFPRP: -0.203; RRIRQRPPRLPRPRPRPFCKPRP: -0.0799.
Next, RRIRLRPPRLPRPRPRPTGVPRP: -0.0506.
As for RRIRGRPPRLPRPRPRPLEYPRP, the “shrunken log2 fold change” value was 0.123.
Take RRIRHRPPRLPRPRPRPMLGPRP: the “shrunken log2 fold change” value was -0.00277.
Next, RRIRHRPPRLPRPRPRPQMAPRP: -0.191.
As for RRIRERPPRLPRPRPRPKLGPRP, the “shrunken log2 fold change” value was found to be 0.12.
The result for RRIRWRPPRLPRPRPRPMTWPRP reads 2.14.
Next, RRIRWRPPRLPRPRPRPWHHPRP: -0.0157.
Next, RRIRYRPPRLPRPRPRPARKPRP: -0.486; RRIRLRPPRLPRPRPRPEMTPRP: 0.276.
Turning to RRIRPRPPRLPRPRPRPGQRPRP, the “shrunken log2 fold change” value amounted to 0.44.
The result for RRIRQRPPRLPRPRPRPWNGPRP reads -0.0018; that for RRIRYRPPRLPRPRPRPRMPPRP, -0.354.
RRIRNRPPRLPRPRPRPCHWPRP: the “shrunken log2 fold change” value is 0.065.
The result for RRIRIRPPRLPRPRPRPGHTPRP reads -0.165; that for RRIRQRPPRLPRPRPRPRAPPRP, 0.749; that for RRIRHRPPRLPRPRPRPNYYPRP, -0.639.
Next, RRIRQRPPRLPRPRPRPVAGPRP: 0.0467; RRIRARPPRLPRPRPRPHLRPRP: 0.325.
The result for RRIRGRPPRLPRPRPRPVFEPRP reads 1.16.
As to RRIRGRPPRLPRPRPRPQIVPRP, the “shrunken log2 fold change” value stood at 0.12.
Turning to RRIRHRPPRLPRPRPRPEIMPRP, the “shrunken log2 fold change” value is -0.023.
Next, RRIRHRPPRLPRPRPRPIMCPRP: -0.245; RRIRMRPPRLPRPRPRPQVPPRP: -0.0842.
Consider RRIRTRPPRLPRPRPRPVFYPRP, for which the “shrunken log2 fold change” value is -0.25.
Next, RRIRKRPPRLPRPRPRPQELPRP: 0.329.
The result for RRIRYRPPRLPRPRPRPMNDPRP reads -0.188.
RRIRERPPRLPRPRPRPNEFPRP: the “shrunken log2 fold change” value is -0.0497.
The result for RRIRIRPPRLPRPRPRPFDRPRP reads 4.11; that for RRIRNRPPRLPRPRPRPYTHPRP, -1.12; that for RRIRFRPPRLPRPRPRPPSEPRP, 0.28.
RRIRPRPPRLPRPRPRPHNYPRP: the “shrunken log2 fold change” value was -0.631.
The result for RRIRGRPPRLPRPRPRPQMHPRP reads 0.989.
Next, RRIRVRPPRLPRPRPRPWSYPRP: -0.0283.
The result for RRIRCRPPRLPRPRPRPWMPPRP reads -0.178; that for RRIRWRPPRLPRPRPRPWDWPRP, 0.00466.
For RRIRFRPPRLPRPRPRPGAVPRP, the “shrunken log2 fold change” value came to 0.223.
For the sequence RRIRPRPPRLPRPRPRPIGNPRP, the “shrunken log2 fold change” value is -0.0419.
The result for RRIRARPPRLPRPRPRPSGDPRP reads 0.15; that for RRIRIRPPRLPRPRPRPANVPRP, -0.0188; that for RRIRKRPPRLPRPRPRPYKGPRP, -0.185.
Next, RRIRNRPPRLPRPRPRPMIHPRP: -0.136.
Next, RRIRPRPPRLPRPRPRPYHEPRP: -0.348.
Regarding RRIRHRPPRLPRPRPRPGQQPRP, the “shrunken log2 fold change” value is -0.028.
Next, RRIRYRPPRLPRPRPRPQYRPRP: -0.148; RRIRVRPPRLPRPRPRPPEKPRP: 0.0629; RRIRFRPPRLPRPRPRPGWHPRP: 0.277.
In the case of RRIRPRPPRLPRPRPRPNHRPRP, the “shrunken log2 fold change” value was -0.11.
Next, RRIRNRPPRLPRPRPRPGMGPRP: 0.307; RRIRMRPPRLPRPRPRPNRTPRP: 0.13.
For RRIRPRPPRLPRPRPRPKQIPRP, the “shrunken log2 fold change” value came out at 0.0957.
The result for RRIRARPPRLPRPRPRPIMMPRP reads -0.245.
Next, RRIRMRPPRLPRPRPRPYHQPRP: -0.297.
Next, RRIRMRPPRLPRPRPRPRRYPRP: 1.15; RRIRRRPPRLPRPRPRPDLYPRP: 0.0296.
RRIRKRPPRLPRPRPRPPFQPRP: the “shrunken log2 fold change” value was 0.119.
The result for RRIRCRPPRLPRPRPRPWVPPRP reads -0.423; that for RRIRYRPPRLPRPRPRPFASPRP, -0.000244.
The result for RRIRPRPPRLPRPRPRPPGTPRP reads 0.317; that for RRIRSRPPRLPRPRPRPPKRPRP, 0.626.
Next, RRIRVRPPRLPRPRPRPEALPRP: -0.00459; RRIRHRPPRLPRPRPRPIDEPRP: 0.142; RRIRSRPPRLPRPRPRPVWCPRP: 0.143.
For the sequence RRIRERPPRLPRPRPRPQANPRP, the “shrunken log2 fold change” value was -0.0396.
Next, RRIRDRPPRLPRPRPRPFNPPRP: -0.509; RRIRGRPPRLPRPRPRPSYHPRP: -0.299.
Next, RRIRQRPPRLPRPRPRPGICPRP: 0.156; RRIRPRPPRLPRPRPRPMRHPRP: -0.0129.
Next, RRIRERPPRLPRPRPRPFAHPRP: 0.117; RRIRVRPPRLPRPRPRPFLNPRP: -0.148.
Turning to RRIRQRPPRLPRPRPRPIPDPRP, the “shrunken log2 fold change” value was -0.07.
As for RRIRKRPPRLPRPRPRPAWTPRP, the “shrunken log2 fold change” value was 0.261.
For the sequence RRIRQRPPRLPRPRPRPFLWPRP, the “shrunken log2 fold change” value is -0.0488.
Next, RRIRSRPPRLPRPRPRPVKHPRP: 0.124.
Next, RRIRYRPPRLPRPRPRPPGWPRP: 0.167; RRIRNRPPRLPRPRPRPFYWPRP: -0.0682.
The result for RRIRMRPPRLPRPRPRPSPVPRP reads 0.384.
Regarding RRIRQRPPRLPRPRPRPAQVPRP, the “shrunken log2 fold change” value amounted to 0.0263.
The result for RRIRARPPRLPRPRPRPAMHPRP reads 0.589; that for RRIRYRPPRLPRPRPRPKITPRP, -0.57; that for RRIRLRPPRLPRPRPRPDFCPRP, -0.0853.
Next, RRIRFRPPRLPRPRPRPEMWPRP: -0.0843; RRIRNRPPRLPRPRPRPVTNPRP: 0.0485.
Take RRIRLRPPRLPRPRPRPTKHPRP: the “shrunken log2 fold change” value is -0.14.
As to RRIRYRPPRLPRPRPRPKCRPRP, the “shrunken log2 fold change” value is -0.153.
With RRIRNRPPRLPRPRPRPHWSPRP, the “shrunken log2 fold change” value is -0.285.
The result for RRIRFRPPRLPRPRPRPTRLPRP reads 0.08.
Next, RRIRKRPPRLPRPRPRPDDCPRP: 0.149; RRIRMRPPRLPRPRPRPKSNPRP: 0.815.
Next, RRIRHRPPRLPRPRPRPTKRPRP: -0.0644; RRIRTRPPRLPRPRPRPRENPRP: 0.277.
For RRIRKRPPRLPRPRPRPRAYPRP, the “shrunken log2 fold change” value is -0.382.
Next, RRIRVRPPRLPRPRPRPSLVPRP: 0.974; RRIRCRPPRLPRPRPRPVFCPRP: -0.131.
Next, RRIRERPPRLPRPRPRPKITPRP: -0.514; RRIRDRPPRLPRPRPRPTFWPRP: 0.588; RRIRDRPPRLPRPRPRPSIGPRP: 0.154.
Next, RRIRRRPPRLPRPRPRPKWWPRP: 0.579; RRIRHRPPRLPRPRPRPTQQPRP: 0.0495.
Consider RRIRFRPPRLPRPRPRPGTMPRP, for which the “shrunken log2 fold change” value was -0.494.
The result for RRIRPRPPRLPRPRPRPIPPPRP reads -0.0888; that for RRIRIRPPRLPRPRPRPLHRPRP, -0.307.
The result for RRIRTRPPRLPRPRPRPLCSPRP reads -0.27; that for RRIRFRPPRLPRPRPRPERNPRP, -0.184.

For the origin of these results see the supplement of paper PMC9112550, “Optimization of the antimicrobial peptide Bac7 by deep mutational scanning” (BMC Biology, 2022).
